From article PMC6071684, “Defining the hydrophobic interactions that drive competence stimulating peptide (CSP)-ComD binding in Streptococcus pneumoniae” (Beilstein Journal of Organic Chemistry, 2018)
Where a SMILES comes first, the peptide text is derived from it. Where no end group is shown, it is not given here. [ ]: non-standard residue; d: D form. Nva = CCC[C@H](N)C(=O)O

Experiments:
[1] = biological target: ComD1 receptor (Streptococcus pneumoniae serotype 2, UniProt A0A0H2ZM50); assay: cell-based
Protocol: (§1) To assess QS modulation, we utilized the β-gal reporter strains, constructed by Lau and co-worker. In these strains the lacZ gene is under the control of QS (pcomX). Thus, upon QS activation, ComE will bind pcomX and transcribe lacZ (in addition to upregulation of ComX). ComD modulation can therefore be quantified by measuring β-gal activity. The peptides were first screened for their ability to activate/inhibit the ComD1 and ComD2 receptors at high concentration (10 µM).
(§2) To examine the ability of the synthesized CSP analogs to modulate the ComD receptors, and thus the QS circuit in S. pneumoniae, β-galactosidase assays were performed using D39pcomX::lacZ (group I) and TIGR4pcomX::lacZ (group II) reporter strains as described in [19].
(§3) Bacterial growth conditions. Bacteria from a freezer stock were grown as described in [19]. Briefly, the bacteria were streaked into a THY agar plate supplemented with 5% donor horse serum and chloramphenicol at a final concentration of 4 µg/mL. The plate was incubated for 8 h in a CO2 incubator (37 °C with 5% CO2). Fresh colonies (single colony for D39pcomX::lacZ; multiple colonies for TIGR4pcomX::lacZ) were picked into sterilized cultural tubes containing 5 mL of THY broth supplemented with chloramphenicol at a final concentration of 4 µg/mL and the cultures were incubated in a CO2 incubator overnight (15 h). Overnight cultures were then diluted (1:50 for D39pcomX::lacZ; 1:10 for TIGR4pcomX::lacZ) with THY and the resulting solution was incubated in a CO2 incubator for 3–4 hours, until the bacteria reached early exponential stage (0.30–0.35 for D39pcomX::lacZ; 0.20–0.25 for TIGR4pcomX::lacZ) as determined by using a plate reader.
(§4) β-Galactosidase assay. Activation assays. […] Briefly, an initial activation screening was performed at high concentration (10 µM) for all CSP analogs. 2 µL of 1 mM solution of CSP analogs in dimethyl sulfoxide (DMSO) were added in triplicate to a clear 96-well microtiter plate. […] 2 µL of DMSO was added in triplicate and served as the negative control for both groups. Then, 198 µL of bacterial culture was added to each well containing CSP and analogs, the plate was incubated at 37 °C for 30 minutes, and the OD600nm was measured. In order to measure the β-galactosidase activity in the pneumococcal culture, the cells were lysed by incubating the culture for 30 minutes at 37 °C with 20 µL of 0.1% Triton X-100. In a new plate, 100 µL of Z-buffer solution (60.2 mM Na2HPO4, 45.8 mM NaH2PO4, 10 mM KCl, and 1.0 mM MgSO4 in 18 MΩ H2O; pH was adjusted to 7.0 and the buffer was sterilized before use) containing 2-nitrophenyl-β-D-galactopyranoside (ONPG) at a final concentration of 0.4 mg/mL was added, followed by 100 µL of lysate, and the plate was incubated for 3 hours at 37 °C. The reaction was stopped by adding 50 µL of 1 M sodium carbonate solution, and the OD420nm and OD550nm were measured using a plate reader. […] For calculation of Miller units, please see data analysis below.
(§5) Analysis of activation/inhibition data. Miller units were calculated using the following formula: […]
(§6) Abs420 is the absorbance of ortho-nitrophenol (ONP). Abs550 is the scatter from cell debris, which, when multiplied by 1.75 approximates the scatter observed at 420 nm. t is the duration of incubation with ONPG in minutes, v is volume of lysate in milliliters, and Abs600 reflects cell density.

[2] = biological target: ComD2 receptor (Streptococcus pneumoniae serotype 4, UniProt A0A0H2US84); assay: cell-based; conditions: for ComD2 primary agonism screening: low induction, EC50 not determined: TIGR4pcomX::lacZ, 10 µM peptide, only analogs with greater than 75% activation compared to CSP2 were taken to EC50
Protocol: as §1, §2, §3, §4, §5, §6

[3] = biological target: ComD1 receptor (S. pneumoniae (endogenous in D39pcomX::lacZ))
[4] = biological target: ComD2 receptor (S. pneumoniae (endogenous in TIGR4pcomX::lacZ))

Chain of ComD2 receptor (A0A0H2US84 entry or part of it): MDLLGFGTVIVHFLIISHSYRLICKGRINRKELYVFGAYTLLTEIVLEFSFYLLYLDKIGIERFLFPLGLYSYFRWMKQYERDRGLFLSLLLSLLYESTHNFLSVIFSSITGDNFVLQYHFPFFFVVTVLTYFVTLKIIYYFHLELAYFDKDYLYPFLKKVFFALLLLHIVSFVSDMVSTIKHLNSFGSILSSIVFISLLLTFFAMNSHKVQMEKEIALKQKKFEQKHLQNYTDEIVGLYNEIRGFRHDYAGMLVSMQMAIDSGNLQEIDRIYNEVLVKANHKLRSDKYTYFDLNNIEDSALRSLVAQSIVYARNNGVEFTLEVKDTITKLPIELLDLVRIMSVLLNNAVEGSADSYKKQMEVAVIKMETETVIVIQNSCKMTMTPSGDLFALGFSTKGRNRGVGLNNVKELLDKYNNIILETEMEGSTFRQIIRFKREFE
Chain of ComD1 receptor (A0A0H2ZM50 entry or part of it): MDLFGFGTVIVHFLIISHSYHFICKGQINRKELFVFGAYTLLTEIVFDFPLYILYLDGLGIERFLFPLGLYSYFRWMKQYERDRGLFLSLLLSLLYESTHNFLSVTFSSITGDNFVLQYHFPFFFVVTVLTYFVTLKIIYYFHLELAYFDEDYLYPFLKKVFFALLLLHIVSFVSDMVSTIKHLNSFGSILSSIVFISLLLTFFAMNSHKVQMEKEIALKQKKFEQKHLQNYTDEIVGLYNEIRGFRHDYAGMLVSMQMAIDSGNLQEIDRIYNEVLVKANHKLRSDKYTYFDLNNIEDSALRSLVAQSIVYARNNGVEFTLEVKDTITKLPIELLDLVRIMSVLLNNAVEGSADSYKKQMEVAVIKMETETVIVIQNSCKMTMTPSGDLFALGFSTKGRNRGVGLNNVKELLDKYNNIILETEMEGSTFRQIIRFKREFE

**Q.** `CCCC[C@H](NC(=O)[C@@H](NC(=O)[C@H](Cc1ccccc1)NC(=O)[C@H](CC(=O)O)NC(=O)[C@H](CCCNC(=N)N)NC(=O)[C@H](Cc1ccccc1)NC(=O)[C@H](Cc1ccccc1)NC(=O)[C@H](CCCCN)NC(=O)[C@H](CO)NC(=O)[C@H](CC(C)C)NC(=O)[C@H](CCCNC(=N)N)NC(=O)[C@H](CCSC)NC(=O)[C@@H](N)CCC(=O)O)[C@@H](C)CC)C(=O)N[C@@H](CCC(N)=O)C(=O)N[C@@H](CCCNC(=N)N)C(=O)N[C@@H](CCCCN)C(=O)N[C@@H](CCCCN)C(=O)O` [CSP1-L13NL] was tested. Which EC50 [1] did it give?
**A.** 18.6 nM

**Q.** What about the EC50 [2] of the same compound?
**A.** > 1000 nM

**Q.** For `CCC[C@H](NC(=O)[C@@H](NC(=O)[C@H](Cc1ccccc1)NC(=O)[C@H](CC(=O)O)NC(=O)[C@H](CCCNC(=N)N)NC(=O)[C@H](Cc1ccccc1)NC(=O)[C@H](Cc1ccccc1)NC(=O)[C@H](CCCCN)NC(=O)[C@H](CO)NC(=O)[C@H](CC(C)C)NC(=O)[C@H](CCCNC(=N)N)NC(=O)[C@H](CCSC)NC(=O)[C@@H](N)CCC(=O)O)[C@@H](C)CC)C(=O)N[C@@H](CCC(N)=O)C(=O)N[C@@H](CCCNC(=N)N)C(=O)N[C@@H](CCCCN)C(=O)N[C@@H](CCCCN)C(=O)O` [CSP1-L13NV] (H-EMRLSKFFRDFI[Nva]QRKK-OH; N-terminus assumed), which EC50 [1] is on record?
**A.** 15.2 nM

**Q.** What about the EC50 [2] of the same compound?
**A.** > 1000 nM

**Q.** For CSP1-F7HF (peptide), which EC50 of activation of pcomX::lacZ (β-galactosidase) in reporter strain D39pcomX::lacZ (group I, ComD1) [3] is on record?
**A.** 81.7 nM

**Q.** What about the EC50 of activation of pcomX::lacZ (β-galactosidase) in reporter strain TIGR4pcomX::lacZ (group II, ComD2) [4] of the same compound?
**A.** 317 nM

**Q.** With CSP1-F8HF (peptide) as the compound, how does the EC50 of activation of pcomX::lacZ (β-galactosidase) in reporter strain D39pcomX::lacZ (group I, ComD1) [3] read?
**A.** 43.4 nM

**Q.** What about the EC50 of activation of pcomX::lacZ (β-galactosidase) in reporter strain TIGR4pcomX::lacZ (group II, ComD2) [4] of the same compound?
**A.** > 1000 nM

**Q.** CSP1-I12L (peptide) was tested. Which EC50 of activation of pcomX::lacZ (β-galactosidase) in reporter strain D39pcomX::lacZ (group I, ComD1) [3] did it give?
**A.** 8.56 nM

**Q.** What about the EC50 of activation of pcomX::lacZ (β-galactosidase) in reporter strain TIGR4pcomX::lacZ (group II, ComD2) [4] of the same compound?
**A.** 537 nM

**Q.** Which results are given for CSP1-I12NL (peptide)?
**A.** EC50 of activation of pcomX::lacZ (β-galactosidase) in reporter strain D39pcomX::lacZ (group I, ComD1) [3]: 6.68 nM; EC50 of activation of pcomX::lacZ (β-galactosidase) in reporter strain TIGR4pcomX::lacZ (group II, ComD2) [4]: > 1000 nM

**Q.** What does the source list for CSP1-I12NV (peptide)?
**A.** EC50 of activation of pcomX::lacZ (β-galactosidase) in reporter strain D39pcomX::lacZ (group I, ComD1) [3]: 13.8 nM; EC50 of activation of pcomX::lacZ (β-galactosidase) in reporter strain TIGR4pcomX::lacZ (group II, ComD2) [4]: 853 nM

**Q.** Which EC50 of activation of pcomX::lacZ (β-galactosidase) in reporter strain D39pcomX::lacZ (group I, ComD1) [3] does the source give for CSP1-L4I (peptide) here?
**A.** 10.2 nM

**Q.** And the EC50 of activation of pcomX::lacZ (β-galactosidase) in reporter strain TIGR4pcomX::lacZ (group II, ComD2) [4]?
**A.** > 1000 nM

**Q.** How did the EC50 of activation of pcomX::lacZ (β-galactosidase) in reporter strain D39pcomX::lacZ (group I, ComD1) [3] turn out when CSP1-L4NL (peptide) was run?
**A.** 13.5 nM

**Q.** What about the EC50 of activation of pcomX::lacZ (β-galactosidase) in reporter strain TIGR4pcomX::lacZ (group II, ComD2) [4] of the same compound?
**A.** > 1000 nM

**Q.** With CSP1-L4NV (peptide) as the compound, how does the EC50 of activation of pcomX::lacZ (β-galactosidase) in reporter strain D39pcomX::lacZ (group I, ComD1) [3] read?
**A.** 5.74 nM

**Q.** And the EC50 of activation of pcomX::lacZ (β-galactosidase) in reporter strain TIGR4pcomX::lacZ (group II, ComD2) [4]?
**A.** 627 nM

**Q.** What does the source list for CSP1-L13I (peptide)?
**A.** EC50 of activation of pcomX::lacZ (β-galactosidase) in reporter strain D39pcomX::lacZ (group I, ComD1) [3]: 9.12 nM; EC50 of activation of pcomX::lacZ (β-galactosidase) in reporter strain TIGR4pcomX::lacZ (group II, ComD2) [4]: 705 nM

**Q.** CSP1-L13NL (peptide) was tested. Which EC50 of activation of pcomX::lacZ (β-galactosidase) in reporter strain D39pcomX::lacZ (group I, ComD1) [3] did it give?
**A.** 18.6 nM

**Q.** And the EC50 of activation of pcomX::lacZ (β-galactosidase) in reporter strain TIGR4pcomX::lacZ (group II, ComD2) [4]?
**A.** > 1000 nM

**Q.** How did the EC50 of activation of pcomX::lacZ (β-galactosidase) in reporter strain D39pcomX::lacZ (group I, ComD1) [3] turn out when CSP1-L13NV (peptide) was run?
**A.** 15.2 nM

**Q.** And the EC50 of activation of pcomX::lacZ (β-galactosidase) in reporter strain TIGR4pcomX::lacZ (group II, ComD2) [4]?
**A.** > 1000 nM

**Q.** EMRISKFFRDFILQRKK-OH [CSP1-L4I] was tested. Which EC50 [1] did it give?
**A.** 10.2 nM

**Q.** What about the EC50 [2] of the same compound?
**A.** > 1000 nM

**Q.** What does the source list for EMRLSKFYRDFILQRKK-OH [CSP1-F8Y]?
**A.** EC50 [1]: 85 nM; ComD2 primary agonism screening: low induction, EC50 not determined [2]: –^e

**Q.** With EMRLSKYFRDFILQRKK-OH [CSP1-F7Y] as the compound, how does the EC50 [1] read?
**A.** 344 nM

**Q.** What about the “ComD2 primary agonism screening: low induction, EC50 not determined” value [2] of the same compound?
**A.** –^e

**Q.** With EMRVSKFFRDFILQRKK-OH [CSP1-L4V] as the compound, how does the EC50 [1] read?
**A.** 113 nM

**Q.** And the “ComD2 primary agonism screening: low induction, EC50 not determined” value [2]?
**A.** –^e
